The results in this text go back to US20120028901A1.

Bounds are passed on as bounds.

To fix the notation:
B1: JBT0720 (peptide)
chain: FQSKGNVFVTGYFARLRAKL
B2: JBT0806 (peptide)
chain: FQSKGNVFVAGYFARLRAKL
B3: JBT0580 (peptide)
chain: FQSKKNVFVFGYFERFRAKL
B4: JBT0583 (peptide)
chain: FQSKKNVFVFGYFERLRAFL
B5: JBT0581 (peptide)
chain: FQSKKNVFVFGYFERLFAKL
B6: JBT0586 (peptide)
chain: FDSKKNVFVFGYFERLRAKL
B7: JBT0570 (peptide)
chain: FFSKKNVFVFGYFERLRAKL
B8: JBT0571 (peptide)
chain: FQFKKNVFVFGYFERLRAKL
B9: JBT0576 (peptide)
chain: FQSKKNVFVFFYFERLRAKL
B10: JBT0577 (peptide)
chain: FQSKKNVFVFGFFERLRAKL
B11: JBT0487 (peptide)
chain: FQSKNNVFVHGYFERLRAKL
B12: JBT0572 (peptide)
chain: FQSFKNVFVFGYFERLRAKL
B13: JBT0579 (peptide)
chain: FQSKKNVFVFGYFEFLRAKL
B14: JBT0497 (peptide)
chain: AQSKGNVFVFGYFERLRAKL
B15: JBT0592 (peptide)
chain: FQSKKNVFDFGYFERLRAKL
B16: JBT0573 (peptide)
chain: FQSKFNVFVFGYFERLRAKL
B17: JBT0582 (peptide)
chain: FQSKKNVFVFGYFERLRFKL
B18: JBT0588 (peptide)
chain: FQSDKNVFVFGYFERLRAKL
B19: JBT0591 (peptide)
chain: FQSKKNVDVFGYFERLRAKL
B20: JBT0516 (peptide)
chain: FESKGNVFVFGYFERLRAKL
B21: JBT0574 (peptide)
chain: FQSKKFVFVFGYFERLRAKL
B22: JBT0594 (peptide)
chain: FQSKKNVFVFGDFERLRAKL
B23: JBT0590 (peptide)
chain: FQSKKNDFVFGYFERLRAKL

A word on the EC50: it is the concentration that produces a half-maximal response. A low value points to greater potency. One may read the IC50 as the concentration needed to halve the response being measured. A higher IC50 goes with weaker potency in that assay.

For the first experiment, the target named is T1, TFPI (human TFPI-1α) as coated or added in the ELISA, microarray and enzymatic assays (human), P10646.
Experiment: not given
As to conditions: modification not given.
With B1, the concentration giving a half-maximal response (EC50) was 0.22 µM.

The next experiment has as its target T1, TFPI (human TFPI-1α) as coated or added ….
Experiment: not given
As to conditions: modification not given. This is another data set of the same source.
B2 showed a 50% effective concentration (EC50) of 2.42 µM.

The target is the same in another experiment. Put plainly: competition. As to conditions: modification not given.
B3 came in with an IC50 of over 5 µM. Take B4: the half-maximal inhibitory concentration (IC50) was over 5 µM. Still for that read-out and setting: as for B5, the figure is over 5 µM; as for B6, over 1.67 µM. For the molecule B7, the concentration for half-maximal inhibition (IC50) was over 5 µM.

As to B8, the IC50 is over 5 µM.

In turn, B9 came in with an IC50 of over 1.67 µM. Same read-out and setting: as for B10, the figure is over 5 µM. On to B11, for which the half-inhibitory concentration (IC50) is 0.04 µM. On the same count and under the same terms, as for B12, the figure is over 5 µM; as for B13, over 5 µM.

As for B14, the IC50 was determined as 0.1 µM. B15 registered a half-inhibitory concentration (IC50) of over 5 µM. Still for that read-out and setting: the value for B16 was 1.37 µM.

B17 showed an IC50 of over 5 µM. For the molecule B18, the IC50 was over 5 µM. With B19, the IC50 is over 5 µM.

Take B20: the IC50 was 1.19 µM.

On to B21, for which the half-maximal inhibitory concentration (IC50) is over 5 µM. The same measure, in the same setting: the value for B22 was over 5 µM; that for B23 was over 5 µM.

The next experiment has the same target.
Experiment: not given
As to conditions: modification not given. This is another data set of the same source.
Turning to B2, the EC50 worked out at 0.13 µM.
